Assay results published in the RNAGym collection of RNA variant scans (doi:10.7554/elife.80360).

B1: HDV Ribozyme (parent)
chain: GGCCGGCAUGGUCCCAGCCUCCUCGCUGGCGCCGGCUGGGCAACAUUCCGAGGGGACCGUCCCCUCGGUAAUGGCGAAUGGGACCCA

Variants of: B1
Assay: self-cleavage, relative activity (ratio to wild type); higher = more cleavage; co-transcriptional

Going from C33U A77C to C33U A78C, the self-cleavage falls from 0.298 to 0.0831.

Going from C33U A83C to C33U A87G, the self-cleavage rises from 0.242 to 0.79.

Compared with C33U A87U, C33U C36U is lower in self-cleavage: 0.885 for the first, 0.519 for the second.

First: C33U C44G
Second: C33U C49A
The self-cleavage of the first is lower: 0.453 for the first, 0.946 for the second.

Compared with C33U C57A, C33U C57G is higher in self-cleavage: 0.935 for the first, 1.04 for the second.

First: C33U C57U
Second: C33U C58A
The self-cleavage of the first is lower: 0.719 for the first, 1.06 for the second.

Compared with C33U C62U, C33U C63A is lower in self-cleavage: 0.816 for the first, 0.716 for the second.

Compared with C33U C66A, C33U C66G is higher in self-cleavage: 0.774 for the first, 0.946 for the second.

Compared with C33U C85G, C33U C86G is higher in self-cleavage: 0.494 for the first, 0.884 for the second.

Going from C33U C86U to C33U G34U, the self-cleavage falls from 0.928 to 0.219.

First: C33U G35A
Second: C33U G35C
The self-cleavage of the first is lower: 0.205 for the first, 0.237 for the second.

First: C33U G35U
Second: C33U G38A
The self-cleavage of the first is higher: 0.383 for the first, 0.172 for the second.

Going from C33U G52A to C33U G52U, the self-cleavage rises from 0.71 to 0.747.

First: C33U G53A
Second: C33U G53C
The self-cleavage of the first is higher: 0.95 for the first, 0.727 for the second.

First: C33U G55C
Second: C33U G55U
The self-cleavage of the first is lower: 0.831 for the first, 0.865 for the second.

First: C33U G59C
Second: C33U G68A
The self-cleavage of the first is higher: 1.01 for the first, 0.796 for the second.

Going from C33U G73A to C33U G73C, the self-cleavage falls from 0.554 to 0.31.

First: C33U G73U
Second: C33U G76C
The self-cleavage of the first is lower: 0.391 for the first, 1.07 for the second.

Compared with C33U G76U, C33U G81A is lower in self-cleavage: 1.02 for the first, 0.285 for the second.

Going from C33U G82U to C33U U37C, the self-cleavage rises from 0.266 to 0.923.

Compared with C33U U46C, C33U U65A is higher in self-cleavage: 0.68 for the first, 0.739 for the second.

Compared with C33U U65C, C33U U65G is higher in self-cleavage: 0.969 for the first, 1.14 for the second.

First: C33U U69A
Second: C33U U72A
The self-cleavage of the first is higher: 0.898 for the first, 0.346 for the second.

First: C33U U72C
Second: G34A
The self-cleavage of the first is higher: 0.268 for the first, 0.189 for the second.

Compared with G34A A43G, G34A A45U is higher in self-cleavage: 0.125 for the first, 0.16 for the second.

Compared with G34A A70G, G34A A71G is lower in self-cleavage: 0.233 for the first, 0.178 for the second.

Going from G34A A71U to G34A A83C, the self-cleavage rises from 0.185 to 0.203.

Going from G34A A83G to G34A A87C, the self-cleavage rises from 0.0817 to 0.126.

Compared with G34A A87G, G34A C36G is lower in self-cleavage: 0.159 for the first, 0.122 for the second.

First: G34A C41A
Second: G34A C41U
The self-cleavage of the first is lower: 0.157 for the first, 0.217 for the second.

First: G34A C44G
Second: G34A C44U
The self-cleavage of the first is higher: 0.134 for the first, 0.0863 for the second.

Compared with G34A C48A, G34A C58A is lower in self-cleavage: 0.259 for the first, 0.203 for the second.

Compared with G34A C61A, G34A C61G is lower in self-cleavage: 0.302 for the first, 0.104 for the second.

Compared with G34A C62A, G34A C62U is higher in self-cleavage: 0.0692 for the first, 0.106 for the second.

First: G34A C63G
Second: G34A C75U
The self-cleavage of the first is higher: 0.133 for the first, 0.086 for the second.

Compared with G34A C85G, G34A G38C is higher in self-cleavage: 0.0978 for the first, 0.166 for the second.

Compared with G34A G39U, G34A G40U is lower in self-cleavage: 0.287 for the first, 0.0685 for the second.

First: G34A G50C
Second: G34A G55C
The self-cleavage of the first is higher: 0.267 for the first, 0.141 for the second.

Compared with G34A G73U, G34A G74A is higher in self-cleavage: 0.0437 for the first, 0.0852 for the second.

First: G34A G74U
Second: G34A G76C
The self-cleavage of the first is lower: 0.0875 for the first, 0.217 for the second.

First: G34A G81C
Second: G34A U46C
The self-cleavage of the first is lower: 0.0733 for the first, 0.215 for the second.

Going from G34A U46G to G34A U47A, the self-cleavage rises from 0.0332 to 0.0997.

Compared with G34A U60A, G34C is lower in self-cleavage: 0.204 for the first, 0.195 for the second.

First: G34C A42C
Second: G34C A43G
The self-cleavage of the first is higher: 0.125 for the first, 0 for the second.

First: G34C A45C
Second: G34C A45U
The self-cleavage of the first is higher: 0.107 for the first, 0.0378 for the second.

Compared with G34C A70C, G34C A71U is lower in self-cleavage: 0.123 for the first, 0.095 for the second.

Going from G34C A78U to G34C A83U, the self-cleavage rises from 0.0475 to 0.0755.

Going from G34C C36G to G34C C44A, the self-cleavage falls from 0.095 to 0.0831.

Compared with G34C C48A, G34C C57U is higher in self-cleavage: 0.161 for the first, 0.188 for the second.

Going from G34C C58U to G34C C61U, the self-cleavage falls from 0.181 to 0.154.

Going from G34C C64A to G34C C66G, the self-cleavage rises from 0.0739 to 0.169.

Compared with G34C C86A, G34C G39A is lower in self-cleavage: 0.13 for the first, 0.0536 for the second.

Compared with G34C G39C, G34C G40A is higher in self-cleavage: 0.0554 for the first, 0.354 for the second.

Going from G34C G40C to G34C G50C, the self-cleavage rises from 0.113 to 0.288.

First: G34C G53C
Second: G34C G54C
The self-cleavage of the first is lower: 0.0898 for the first, 0.295 for the second.

First: G34C G55A
Second: G34C G55U
The self-cleavage of the first is higher: 0.147 for the first, 0.113 for the second.

First: G34C G59A
Second: G34C G67A
The self-cleavage of the first is lower: 0.143 for the first, 0.211 for the second.

Going from G34C G67C to G34C G67U, the self-cleavage rises from 0.123 to 0.166.

Going from G34C G68U to G34C G73U, the self-cleavage falls from 0.199 to 0.0627.

Going from G34C G76C to G34C G76U, the self-cleavage rises from 0.332 to 0.358.

Compared with G34C G80A, G34C G80C is higher in self-cleavage: 0.138 for the first, 0.23 for the second.

First: G34C G81C
Second: G34C U46A
The self-cleavage of the first is lower: 0.115 for the first, 0.158 for the second.

Going from G34C U47A to G34C U47G, the self-cleavage falls from 0.161 to 0.133.

Going from G34C U65A to G34C U65G, the self-cleavage rises from 0.138 to 0.208.

First: G34C U79A
Second: G34U
The self-cleavage of the first is lower: 0.104 for the first, 0.19 for the second.

First: G34U A51U
Second: G34U A56G
The self-cleavage of the first is lower: 0.169 for the first, 0.288 for the second.

Compared with G34U A71C, G34U A77U is higher in self-cleavage: 0.161 for the first, 0.163 for the second.

Compared with G34U A78C, G34U A78G is higher in self-cleavage: 0.0369 for the first, 0.111 for the second.

Going from G34U A83C to G34U A83U, the self-cleavage rises from 0.133 to 0.173.

Going from G34U C49A to G34U C57A, the self-cleavage falls from 0.151 to 0.114.

Going from G34U C58U to G34U C62A, the self-cleavage falls from 0.153 to 0.0831.

Going from G34U C62U to G34U C63G, the self-cleavage falls from 0.229 to 0.0475.

First: G34U C66U
Second: G34U C84G
The self-cleavage of the first is higher: 0.166 for the first, 0.161 for the second.

First: G34U C85A
Second: G34U C85G
The self-cleavage of the first is higher: 0.164 for the first, 0.128 for the second.

Going from G34U G38A to G34U G38C, the self-cleavage rises from 0.0702 to 0.194.

Compared with G34U G38U, G34U G53A is lower in self-cleavage: 0.248 for the first, 0.189 for the second.

First: G34U G54U
Second: G34U G55U
The self-cleavage of the first is lower: 0.0923 for the first, 0.105 for the second.

First: G34U G59A
Second: G34U G59C
The self-cleavage of the first is higher: 0.203 for the first, 0.142 for the second.

First: G34U G73A
Second: G34U G73U
The self-cleavage of the first is higher: 0.109 for the first, 0.0455 for the second.

Compared with G34U G74A, G34U G74U is higher in self-cleavage: 0.0821 for the first, 0.133 for the second.

Compared with G34U G76U, G34U G80A is lower in self-cleavage: 0.132 for the first, 0.113 for the second.

Compared with G34U G80C, G34U G81A is higher in self-cleavage: 0.143 for the first, 0.166 for the second.

Compared with G34U U37G, G34U U46C is higher in self-cleavage: 0.0519 for the first, 0.161 for the second.

For G34U U46G, the self-cleavage was 0.196.
